# Experimental data taken from article PMC2234252 (The Journal of Cell Biology, 2008).
# T1: hZwint-1 (human, UniProt O95229 1-277)
# T1 sequence (looked up): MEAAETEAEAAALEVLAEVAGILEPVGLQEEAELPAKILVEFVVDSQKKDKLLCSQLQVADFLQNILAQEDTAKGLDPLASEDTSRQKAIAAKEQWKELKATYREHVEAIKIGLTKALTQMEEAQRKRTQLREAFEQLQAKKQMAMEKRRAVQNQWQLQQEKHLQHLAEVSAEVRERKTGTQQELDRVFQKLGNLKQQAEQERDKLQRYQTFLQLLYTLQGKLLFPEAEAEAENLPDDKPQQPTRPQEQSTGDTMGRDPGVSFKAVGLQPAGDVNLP
# Biological target: T1, hZwint-1
# Assay: two-hybrid
row,β-galactosidase assay,Binder
1,187,"hZW10 full length (aa 1–779) (natural protein, human, UniProt O43264 1-779, looked up) MASFVTEVLAHSGRLEKEDLGTRISRLTRRVEEIKGEVCNMISKKYSEFLPSMQSAQGLITQVDKLSEDIDLLKSRIESEVRRDLHVSTGEFTDLKQQLERDSVVLSLLKQLQEFSTAIEEYNCALTEKKYVTGAQRLEEAQKCLKLLKSRKCFDLKILKSLSMELTIQKQNILYHLGEEWQKLIVWKFPPSKDTSSLESYLQTELHLYTEQSHKEEKTPMPPISSVLLAFSVLGELHSKLKSFGQMLLKYILRPLASCPSLHAVIESQPNIVIIRFESIMTNLEYPSPSEVFTKIRLVLEVLQKQLLDLPLDTDLENEKTSTVPLAEMLGDMIWEDLSECLIKNCLVYSIPTNSSKLQQYEEIIQSTEEFENALKEMRFLKGDTTDLLKYARNINSHFANKKCQDVIVAARNLMTSEIHNTVKIIPDSKINVPELPTPDEDNKLEVQKVSNTQYHEVMNLEPENTLDQHSFSLPTCRISESVKKLMELAYQTLLEATTSSDQCAVQLFYSVRNIFHLFHDVVPTYHKENLQKLPQLAAIHHNNCMYIAHHLLTLGHQFRLRLAPILCDGTATFVDLVPGFRRLGTECFLAQMRAQKGELLERLSSARNFSNMDDEENYSAASKAVRQVLHQLKRLGIVWQDVLPVNIYCKAMGTLLNTAISEVIGKITALEDISTEDGDRLYSLCKTVMDEGPQVFAPLSEESKNKKYQEEVPVYVPKWMPFKELMMMLQASLQEIGDRWADGKGPLAAAFSSSEVKALIRALFQNTERRAAALAKIK"
2,2.14,"hZW10 N1 (aa 52–779) (domain or fragment, human, UniProt O43264 52-779, looked up) SMQSAQGLITQVDKLSEDIDLLKSRIESEVRRDLHVSTGEFTDLKQQLERDSVVLSLLKQLQEFSTAIEEYNCALTEKKYVTGAQRLEEAQKCLKLLKSRKCFDLKILKSLSMELTIQKQNILYHLGEEWQKLIVWKFPPSKDTSSLESYLQTELHLYTEQSHKEEKTPMPPISSVLLAFSVLGELHSKLKSFGQMLLKYILRPLASCPSLHAVIESQPNIVIIRFESIMTNLEYPSPSEVFTKIRLVLEVLQKQLLDLPLDTDLENEKTSTVPLAEMLGDMIWEDLSECLIKNCLVYSIPTNSSKLQQYEEIIQSTEEFENALKEMRFLKGDTTDLLKYARNINSHFANKKCQDVIVAARNLMTSEIHNTVKIIPDSKINVPELPTPDEDNKLEVQKVSNTQYHEVMNLEPENTLDQHSFSLPTCRISESVKKLMELAYQTLLEATTSSDQCAVQLFYSVRNIFHLFHDVVPTYHKENLQKLPQLAAIHHNNCMYIAHHLLTLGHQFRLRLAPILCDGTATFVDLVPGFRRLGTECFLAQMRAQKGELLERLSSARNFSNMDDEENYSAASKAVRQVLHQLKRLGIVWQDVLPVNIYCKAMGTLLNTAISEVIGKITALEDISTEDGDRLYSLCKTVMDEGPQVFAPLSEESKNKKYQEEVPVYVPKWMPFKELMMMLQASLQEIGDRWADGKGPLAAAFSSSEVKALIRALFQNTERRAAALAKIK"
3,445,"hZW10 C9 (aa 1–139) (domain or fragment, human, UniProt O43264 1-139, looked up) MASFVTEVLAHSGRLEKEDLGTRISRLTRRVEEIKGEVCNMISKKYSEFLPSMQSAQGLITQVDKLSEDIDLLKSRIESEVRRDLHVSTGEFTDLKQQLERDSVVLSLLKQLQEFSTAIEEYNCALTEKKYVTGAQRLE"

# Further lines, the binder ahead of its results:
row,Binder,β-galactosidase assay
1,"hZW10 C1 (aa 1–772) (domain or fragment, human, UniProt O43264 1-772, looked up) MASFVTEVLAHSGRLEKEDLGTRISRLTRRVEEIKGEVCNMISKKYSEFLPSMQSAQGLITQVDKLSEDIDLLKSRIESEVRRDLHVSTGEFTDLKQQLERDSVVLSLLKQLQEFSTAIEEYNCALTEKKYVTGAQRLEEAQKCLKLLKSRKCFDLKILKSLSMELTIQKQNILYHLGEEWQKLIVWKFPPSKDTSSLESYLQTELHLYTEQSHKEEKTPMPPISSVLLAFSVLGELHSKLKSFGQMLLKYILRPLASCPSLHAVIESQPNIVIIRFESIMTNLEYPSPSEVFTKIRLVLEVLQKQLLDLPLDTDLENEKTSTVPLAEMLGDMIWEDLSECLIKNCLVYSIPTNSSKLQQYEEIIQSTEEFENALKEMRFLKGDTTDLLKYARNINSHFANKKCQDVIVAARNLMTSEIHNTVKIIPDSKINVPELPTPDEDNKLEVQKVSNTQYHEVMNLEPENTLDQHSFSLPTCRISESVKKLMELAYQTLLEATTSSDQCAVQLFYSVRNIFHLFHDVVPTYHKENLQKLPQLAAIHHNNCMYIAHHLLTLGHQFRLRLAPILCDGTATFVDLVPGFRRLGTECFLAQMRAQKGELLERLSSARNFSNMDDEENYSAASKAVRQVLHQLKRLGIVWQDVLPVNIYCKAMGTLLNTAISEVIGKITALEDISTEDGDRLYSLCKTVMDEGPQVFAPLSEESKNKKYQEEVPVYVPKWMPFKELMMMLQASLQEIGDRWADGKGPLAAAFSSSEVKALIRALFQNTERRA",3.4
2,"hZW10 C2 (aa 1–698) (domain or fragment, human, UniProt O43264 1-698, looked up) MASFVTEVLAHSGRLEKEDLGTRISRLTRRVEEIKGEVCNMISKKYSEFLPSMQSAQGLITQVDKLSEDIDLLKSRIESEVRRDLHVSTGEFTDLKQQLERDSVVLSLLKQLQEFSTAIEEYNCALTEKKYVTGAQRLEEAQKCLKLLKSRKCFDLKILKSLSMELTIQKQNILYHLGEEWQKLIVWKFPPSKDTSSLESYLQTELHLYTEQSHKEEKTPMPPISSVLLAFSVLGELHSKLKSFGQMLLKYILRPLASCPSLHAVIESQPNIVIIRFESIMTNLEYPSPSEVFTKIRLVLEVLQKQLLDLPLDTDLENEKTSTVPLAEMLGDMIWEDLSECLIKNCLVYSIPTNSSKLQQYEEIIQSTEEFENALKEMRFLKGDTTDLLKYARNINSHFANKKCQDVIVAARNLMTSEIHNTVKIIPDSKINVPELPTPDEDNKLEVQKVSNTQYHEVMNLEPENTLDQHSFSLPTCRISESVKKLMELAYQTLLEATTSSDQCAVQLFYSVRNIFHLFHDVVPTYHKENLQKLPQLAAIHHNNCMYIAHHLLTLGHQFRLRLAPILCDGTATFVDLVPGFRRLGTECFLAQMRAQKGELLERLSSARNFSNMDDEENYSAASKAVRQVLHQLKRLGIVWQDVLPVNIYCKAMGTLLNTAISEVIGKITALEDISTEDGDRLYSLCKTVMDEGPQVFA",2.6
3,"hZW10 C6 (aa 1–356) (domain or fragment, human, UniProt O43264 1-356, looked up) MASFVTEVLAHSGRLEKEDLGTRISRLTRRVEEIKGEVCNMISKKYSEFLPSMQSAQGLITQVDKLSEDIDLLKSRIESEVRRDLHVSTGEFTDLKQQLERDSVVLSLLKQLQEFSTAIEEYNCALTEKKYVTGAQRLEEAQKCLKLLKSRKCFDLKILKSLSMELTIQKQNILYHLGEEWQKLIVWKFPPSKDTSSLESYLQTELHLYTEQSHKEEKTPMPPISSVLLAFSVLGELHSKLKSFGQMLLKYILRPLASCPSLHAVIESQPNIVIIRFESIMTNLEYPSPSEVFTKIRLVLEVLQKQLLDLPLDTDLENEKTSTVPLAEMLGDMIWEDLSECLIKNCLVYSIPTNSS",275
4,"hZW10 C8 (aa 1–224) (domain or fragment, human, UniProt O43264 1-224, looked up) MASFVTEVLAHSGRLEKEDLGTRISRLTRRVEEIKGEVCNMISKKYSEFLPSMQSAQGLITQVDKLSEDIDLLKSRIESEVRRDLHVSTGEFTDLKQQLERDSVVLSLLKQLQEFSTAIEEYNCALTEKKYVTGAQRLEEAQKCLKLLKSRKCFDLKILKSLSMELTIQKQNILYHLGEEWQKLIVWKFPPSKDTSSLESYLQTELHLYTEQSHKEEKTPMPPI",233
5,"hZW10 C4 (aa 1–496) (domain or fragment, human, UniProt O43264 1-496, looked up) MASFVTEVLAHSGRLEKEDLGTRISRLTRRVEEIKGEVCNMISKKYSEFLPSMQSAQGLITQVDKLSEDIDLLKSRIESEVRRDLHVSTGEFTDLKQQLERDSVVLSLLKQLQEFSTAIEEYNCALTEKKYVTGAQRLEEAQKCLKLLKSRKCFDLKILKSLSMELTIQKQNILYHLGEEWQKLIVWKFPPSKDTSSLESYLQTELHLYTEQSHKEEKTPMPPISSVLLAFSVLGELHSKLKSFGQMLLKYILRPLASCPSLHAVIESQPNIVIIRFESIMTNLEYPSPSEVFTKIRLVLEVLQKQLLDLPLDTDLENEKTSTVPLAEMLGDMIWEDLSECLIKNCLVYSIPTNSSKLQQYEEIIQSTEEFENALKEMRFLKGDTTDLLKYARNINSHFANKKCQDVIVAARNLMTSEIHNTVKIIPDSKINVPELPTPDEDNKLEVQKVSNTQYHEVMNLEPENTLDQHSFSLPTCRISESVKKLMELAYQTLLE",1
6,"hZW10 C5 (aa 1–410) (domain or fragment, human, UniProt O43264 1-410, looked up) MASFVTEVLAHSGRLEKEDLGTRISRLTRRVEEIKGEVCNMISKKYSEFLPSMQSAQGLITQVDKLSEDIDLLKSRIESEVRRDLHVSTGEFTDLKQQLERDSVVLSLLKQLQEFSTAIEEYNCALTEKKYVTGAQRLEEAQKCLKLLKSRKCFDLKILKSLSMELTIQKQNILYHLGEEWQKLIVWKFPPSKDTSSLESYLQTELHLYTEQSHKEEKTPMPPISSVLLAFSVLGELHSKLKSFGQMLLKYILRPLASCPSLHAVIESQPNIVIIRFESIMTNLEYPSPSEVFTKIRLVLEVLQKQLLDLPLDTDLENEKTSTVPLAEMLGDMIWEDLSECLIKNCLVYSIPTNSSKLQQYEEIIQSTEEFENALKEMRFLKGDTTDLLKYARNINSHFANKKCQDVIVA",26.6
7,"hZW10 C3 (aa 1–560) (domain or fragment, human, UniProt O43264 1-560, looked up) MASFVTEVLAHSGRLEKEDLGTRISRLTRRVEEIKGEVCNMISKKYSEFLPSMQSAQGLITQVDKLSEDIDLLKSRIESEVRRDLHVSTGEFTDLKQQLERDSVVLSLLKQLQEFSTAIEEYNCALTEKKYVTGAQRLEEAQKCLKLLKSRKCFDLKILKSLSMELTIQKQNILYHLGEEWQKLIVWKFPPSKDTSSLESYLQTELHLYTEQSHKEEKTPMPPISSVLLAFSVLGELHSKLKSFGQMLLKYILRPLASCPSLHAVIESQPNIVIIRFESIMTNLEYPSPSEVFTKIRLVLEVLQKQLLDLPLDTDLENEKTSTVPLAEMLGDMIWEDLSECLIKNCLVYSIPTNSSKLQQYEEIIQSTEEFENALKEMRFLKGDTTDLLKYARNINSHFANKKCQDVIVAARNLMTSEIHNTVKIIPDSKINVPELPTPDEDNKLEVQKVSNTQYHEVMNLEPENTLDQHSFSLPTCRISESVKKLMELAYQTLLEATTSSDQCAVQLFYSVRNIFHLFHDVVPTYHKENLQKLPQLAAIHHNNCMYIAHHLLTLGHQFR",2.5
8,"hZW10 C7 (aa 1–318) (domain or fragment, human, UniProt O43264 1-318, looked up) MASFVTEVLAHSGRLEKEDLGTRISRLTRRVEEIKGEVCNMISKKYSEFLPSMQSAQGLITQVDKLSEDIDLLKSRIESEVRRDLHVSTGEFTDLKQQLERDSVVLSLLKQLQEFSTAIEEYNCALTEKKYVTGAQRLEEAQKCLKLLKSRKCFDLKILKSLSMELTIQKQNILYHLGEEWQKLIVWKFPPSKDTSSLESYLQTELHLYTEQSHKEEKTPMPPISSVLLAFSVLGELHSKLKSFGQMLLKYILRPLASCPSLHAVIESQPNIVIIRFESIMTNLEYPSPSEVFTKIRLVLEVLQKQLLDLPLDTDLEN",132
